Data as given in patent EP4640708A1 (Chimagen Biosciences, Ltd, dated 2025).

Assays:
[1] = biological target: T1, human GPRC5D (hGPRC5D) on cells (human, UniProt Q9NZD1 1-345); test: flow cytometry, MM.1R cells naturally expressing GPRC5D
T1 construct: whole, on cells; also called HEK293-hGPRC5D; CHOS-hGPRC5D

[2] = biological target: T1, human GPRC5D (hGPRC5D) on cells; test: flow cytometry, NCI-H929 cells naturally expressing GPRC5D
[3] = biological target: T1, human GPRC5D (hGPRC5D) on cells; test: flow cytometry, RPMI-8226 cells naturally expressing GPRC5D

T1 sequence (Q9NZD1 whole entry): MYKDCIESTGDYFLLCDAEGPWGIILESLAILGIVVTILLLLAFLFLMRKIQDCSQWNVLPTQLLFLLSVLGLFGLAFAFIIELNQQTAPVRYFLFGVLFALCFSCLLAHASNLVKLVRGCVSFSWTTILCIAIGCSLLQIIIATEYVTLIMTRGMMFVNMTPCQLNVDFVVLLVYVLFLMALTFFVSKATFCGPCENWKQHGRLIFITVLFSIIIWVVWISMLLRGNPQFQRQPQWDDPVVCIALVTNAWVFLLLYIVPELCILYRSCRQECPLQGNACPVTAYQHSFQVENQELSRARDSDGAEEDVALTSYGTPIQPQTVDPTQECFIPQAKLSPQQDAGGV

B1: GC5B596 (antibody, V domains shown)
VH: QVQLVQSGAEVKKPGASVKVSCKASGYSFTGYTMNWVRQAPGQGLEWMGLINPYNSDTNYAQKLQGRVTMTTDTSTSTAYMELRSLRSDDTAVYYCARVALRVALDYWGQGTLVTVSS
VL: DIQMTQSPSSLSASVGDRVTITCKASQNVATHVGWYQQKPGKAPKRLIYSASYRYSGVPSRFSGSGSGTEFTLTISNLQPEDFATYYCQQYNRYPYTFGQGTKLEIKR
EC50 [1]: 7.2 µg/mL
EC50 [2]: 9.52 µg/mL
EC50 [3]: 14.3 µg/mL
